Measured values from patent US20180273587A1 (AILERON THERAPEUTICS, published 2018).
Starred links: 1 amine or outer side, 2 acyl side, 3 side chain; linkers in the order of their positions; H or OH if unused. Positions of bridges follow the written chain, without caps; N, C: chain ends. Non-standard residues stand in square brackets, D forms with d. Gly(1-adamantyl) = N[C@H](C(=O)O)C12CC3CC(CC(C3)C1)C2; Phe(4-CF3) = N[C@@H](Cc1ccc(C(F)(F)F)cc1)C(=O)O; Phe(4-tBu) = CC(C)(C)c1ccc(C[C@H](N)C(=O)O)cc1; hhL = hhLeu, CC(C)CCC[C@H](N[*:1])C(=O)[*:2]; 2Nal = N[C@@H](Cc1ccc2ccccc2c1)C(=O)O; Igl = N[C@H](C(=O)O)C1Cc2ccccc2C1; hCha = N[C@@H](CCC1CCCCC1)C(=O)O; hPhe = N[C@@H](CCc1ccccc1)C(=O)O; R8 = C=CCCCCCC[C@@](C)(N)C(=O)O; S5 = C=CCCC[C@](C)(N)C(=O)O

Assays:
Experiment in all cases: Ki table, method not stated
MCL-1 = molecular target: T1, MCL-1 (UniProt Q07820 172-327, limits assumed)
T1 construct: also called Myeloid cell leukemia 1

BCL-XL = BCL-XL (UniProt Q07817 1-209)
BCL-2 = BCL-2 (UniProt P10415 1-217, limits assumed)
BCL-2, sequence (P10415 1-217 limits assumed): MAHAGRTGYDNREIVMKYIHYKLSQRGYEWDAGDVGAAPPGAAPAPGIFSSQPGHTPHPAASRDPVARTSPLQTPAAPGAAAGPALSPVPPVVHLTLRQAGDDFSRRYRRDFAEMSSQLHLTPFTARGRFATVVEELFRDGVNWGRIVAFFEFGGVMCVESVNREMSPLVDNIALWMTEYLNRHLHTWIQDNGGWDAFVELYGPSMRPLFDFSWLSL

BCL-XL, sequence (Q07817 1-209): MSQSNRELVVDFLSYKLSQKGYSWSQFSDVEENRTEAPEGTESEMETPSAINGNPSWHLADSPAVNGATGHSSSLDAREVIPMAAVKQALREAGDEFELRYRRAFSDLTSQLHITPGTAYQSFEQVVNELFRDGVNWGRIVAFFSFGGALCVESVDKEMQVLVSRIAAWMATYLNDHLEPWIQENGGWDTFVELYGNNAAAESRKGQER
T1 sequence (Q07820 172-327 limits assumed): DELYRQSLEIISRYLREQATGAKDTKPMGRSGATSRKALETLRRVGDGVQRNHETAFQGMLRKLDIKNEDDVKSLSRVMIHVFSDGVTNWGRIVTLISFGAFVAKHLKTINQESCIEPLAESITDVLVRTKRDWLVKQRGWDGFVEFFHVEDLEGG

Binder | Ki (MCL-1) | Ki (BCL-XL) | Ki (BCL-2)
Ac-IW[hhL]AQALR[R8]IGDAFN[S5]YYA-NH2 (staple 9-16; SMILES CC[C@H](C)[C@H](NC(C)=O)C(=O)N[C@@H](Cc1c[nH]c2ccccc12)C(=O)N[C@@H](CCCC(C)C)C(=O)N[C@@H](C)C(=O)N[C@@H](CCC(N)=O)C(=O)N[C@@H](C)C(=O)N[C@@H](CC(C)C)C(=O)N[C@@H](CCCNC(=N)N)C(=O)N[C@]1(C)CCCCCCC=CCCC[C@@](C)(C(=O)N[C@@H](Cc2ccc(O)cc2)C(=O)N[C@@H](Cc2ccc(O)cc2)C(=O)N[C@@H](C)C(N)=O)NC(=O)[C@H](CC(N)=O)NC(=O)[C@H](Cc2ccccc2)NC(=O)[C@H](C)NC(=O)[C@H](CC(=O)O)NC(=O)CNC(=O)[C@H]([C@@H](C)CC)NC1=O, also called Ac-IWhhLAQALR$r8IGDAFN$YYA-NH2) [SEQ ID NO: 1678] | 21.2 nM | 11.9 nM | 161 nM
Ac-IW[hCha]AQALR[R8]IGDAFN[S5]YYA-NH2 (staple 9-16; SMILES CC[C@H](C)[C@H](NC(C)=O)C(=O)N[C@@H](Cc1c[nH]c2ccccc12)C(=O)N[C@@H](CCC1CCCCC1)C(=O)N[C@@H](C)C(=O)N[C@@H](CCC(N)=O)C(=O)N[C@@H](C)C(=O)N[C@@H](CC(C)C)C(=O)N[C@@H](CCCNC(=N)N)C(=O)N[C@]1(C)CCCCCCC=CCCC[C@@](C)(C(=O)N[C@@H](Cc2ccc(O)cc2)C(=O)N[C@@H](Cc2ccc(O)cc2)C(=O)N[C@@H](C)C(N)=O)NC(=O)[C@H](CC(N)=O)NC(=O)[C@H](Cc2ccccc2)NC(=O)[C@H](C)NC(=O)[C@H](CC(=O)O)NC(=O)CNC(=O)[C@H]([C@@H](C)CC)NC1=O, also called Ac-IWhChaAQALR$r8IGDAFN$YYA-NH2) [SEQ ID NO: 1680] | 22.2 nM | 13.1 nM | 182 nM
Ac-IW[2Nal]AQALR[R8]IGDAFN[S5]YYA-NH2 (staple 9-16; SMILES CC[C@H](C)[C@H](NC(C)=O)C(=O)N[C@@H](Cc1c[nH]c2ccccc12)C(=O)N[C@@H](Cc1ccc2ccccc2c1)C(=O)N[C@@H](C)C(=O)N[C@@H](CCC(N)=O)C(=O)N[C@@H](C)C(=O)N[C@@H](CC(C)C)C(=O)N[C@@H](CCCNC(=N)N)C(=O)N[C@]1(C)CCCCCCC=CCCC[C@@](C)(C(=O)N[C@@H](Cc2ccc(O)cc2)C(=O)N[C@@H](Cc2ccc(O)cc2)C(=O)N[C@@H](C)C(N)=O)NC(=O)[C@H](CC(N)=O)NC(=O)[C@H](Cc2ccccc2)NC(=O)[C@H](C)NC(=O)[C@H](CC(=O)O)NC(=O)CNC(=O)[C@H]([C@@H](C)CC)NC1=O, also called Ac-IW2NalAQALR$r8IGDAFN$YYA-NH2) [SEQ ID NO: 1685] | 163 nM | 151 nM | 265 nM
Ac-IWIAQA[Phe(4-tBu)]R[R8]IGDAFN[S5]YYA-NH2 (staple 9-16; SMILES CC[C@H](C)[C@H](NC(C)=O)C(=O)N[C@@H](Cc1c[nH]c2ccccc12)C(=O)N[C@H](C(=O)N[C@@H](C)C(=O)N[C@@H](CCC(N)=O)C(=O)N[C@@H](C)C(=O)N[C@@H](Cc1ccc(C(C)(C)C)cc1)C(=O)N[C@@H](CCCNC(=N)N)C(=O)N[C@]1(C)CCCCCCC=CCCC[C@@](C)(C(=O)N[C@@H](Cc2ccc(O)cc2)C(=O)N[C@@H](Cc2ccc(O)cc2)C(=O)N[C@@H](C)C(N)=O)NC(=O)[C@H](CC(N)=O)NC(=O)[C@H](Cc2ccccc2)NC(=O)[C@H](C)NC(=O)[C@H](CC(=O)O)NC(=O)CNC(=O)[C@H]([C@@H](C)CC)NC1=O)[C@@H](C)CC, also called Ac-IWIAQAF4tBuR$r8IGDAFN$YYA-NH2) [SEQ ID NO: 1695] | 169 nM | 12.7 nM | 288 nM
Ac-IW[Phe(4-CF3)]AQALR[R8]IGDAFN[S5]YYA-NH2 (staple 9-16; SMILES CC[C@H](C)[C@H](NC(C)=O)C(=O)N[C@@H](Cc1c[nH]c2ccccc12)C(=O)N[C@@H](Cc1ccc(C(F)(F)F)cc1)C(=O)N[C@@H](C)C(=O)N[C@@H](CCC(N)=O)C(=O)N[C@@H](C)C(=O)N[C@@H](CC(C)C)C(=O)N[C@@H](CCCNC(=N)N)C(=O)N[C@]1(C)CCCCCCC=CCCC[C@@](C)(C(=O)N[C@@H](Cc2ccc(O)cc2)C(=O)N[C@@H](Cc2ccc(O)cc2)C(=O)N[C@@H](C)C(N)=O)NC(=O)[C@H](CC(N)=O)NC(=O)[C@H](Cc2ccccc2)NC(=O)[C@H](C)NC(=O)[C@H](CC(=O)O)NC(=O)CNC(=O)[C@H]([C@@H](C)CC)NC1=O, also called Ac-IWF4CF3AQALR$r8IGDAFN$YYA-NH2) [SEQ ID NO: 1683] | 76.7 nM | 9.1 nM | 237 nM

More lines, in order of falling Ki (MCL-1), values ahead:

Ki (MCL-1) | Ki (BCL-XL) | Ki (BCL-2) | Binder
53.1 nM | 69.7 nM | 221 nM | Ac-IW[hPhe]AQALR[R8]IGDAFN[S5]YYA-NH2 (staple 9-16; SMILES CC[C@H](C)[C@H](NC(C)=O)C(=O)N[C@@H](Cc1c[nH]c2ccccc12)C(=O)N[C@@H](CCc1ccccc1)C(=O)N[C@@H](C)C(=O)N[C@@H](CCC(N)=O)C(=O)N[C@@H](C)C(=O)N[C@@H](CC(C)C)C(=O)N[C@@H](CCCNC(=N)N)C(=O)N[C@]1(C)CCCCCCC=CCCC[C@@](C)(C(=O)N[C@@H](Cc2ccc(O)cc2)C(=O)N[C@@H](Cc2ccc(O)cc2)C(=O)N[C@@H](C)C(N)=O)NC(=O)[C@H](CC(N)=O)NC(=O)[C@H](Cc2ccccc2)NC(=O)[C@H](C)NC(=O)[C@H](CC(=O)O)NC(=O)CNC(=O)[C@H]([C@@H](C)CC)NC1=O, also called Ac-IWhFAQALR$r8IGDAFN$YYA-NH2) [SEQ ID NO: 1681]
21.6 nM | 7.3 nM | 59 nM | Ac-IW[Gly(1-adamantyl)]AQALR[R8]IGDAFN[S5]YYA-NH2 (staple 9-16; SMILES CC[C@H](C)[C@H](NC(C)=O)C(=O)N[C@@H](Cc1c[nH]c2ccccc12)C(=O)N[C@H](C(=O)N[C@@H](C)C(=O)N[C@@H](CCC(N)=O)C(=O)N[C@@H](C)C(=O)N[C@@H](CC(C)C)C(=O)N[C@@H](CCCNC(=N)N)C(=O)N[C@]1(C)CCCCCCC=CCCC[C@@](C)(C(=O)N[C@@H](Cc2ccc(O)cc2)C(=O)N[C@@H](Cc2ccc(O)cc2)C(=O)N[C@@H](C)C(N)=O)NC(=O)[C@H](CC(N)=O)NC(=O)[C@H](Cc2ccccc2)NC(=O)[C@H](C)NC(=O)[C@H](CC(=O)O)NC(=O)CNC(=O)[C@H]([C@@H](C)CC)NC1=O)C12CC3CC(CC(C3)C1)C2, also called Ac-IWAdmAQALR$r8IGDAFN$YYA-NH2) [SEQ ID NO: 1679]
12.8 nM | 146 nM | 246 nM | Ac-IW[Igl]AQALR[R8]IGDAFN[S5]YYA-NH2 (staple 9-16; SMILES CC[C@H](C)[C@H](NC(C)=O)C(=O)N[C@@H](Cc1c[nH]c2ccccc12)C(=O)N[C@H](C(=O)N[C@@H](C)C(=O)N[C@@H](CCC(N)=O)C(=O)N[C@@H](C)C(=O)N[C@@H](CC(C)C)C(=O)N[C@@H](CCCNC(=N)N)C(=O)N[C@]1(C)CCCCCCC=CCCC[C@@](C)(C(=O)N[C@@H](Cc2ccc(O)cc2)C(=O)N[C@@H](Cc2ccc(O)cc2)C(=O)N[C@@H](C)C(N)=O)NC(=O)[C@H](CC(N)=O)NC(=O)[C@H](Cc2ccccc2)NC(=O)[C@H](C)NC(=O)[C@H](CC(=O)O)NC(=O)CNC(=O)[C@H]([C@@H](C)CC)NC1=O)C1Cc2ccccc2C1, also called Ac-IWIglAQALR$r8IGDAFN$YYA-NH2) [SEQ ID NO: 1682]
